This test concerns the target receptor-binding domain (RBD) of the SARS-CoV-2 spike (S) protein S1 region, His-tagged (SARS-CoV-2) (UniProt P0DTC2). Put plainly: SPR. (In general: In SPR one partner is held on a chip, and binding of the other changes the refractive index at the surface.)

As usually defined, the Kd is the constant that tells how readily two partners part at equilibrium. Read a low Kd as tighter binding. As a reminder, the koff is a measure of how fast the partners let go of each other. By kon is commonly meant the rate constant with which the complex forms. A lower kon goes with slow association. For “recombinant human integrin αvβ6 (from UniProt P06756 31-1048; P18564 22-709) (complex)”, the Kd worked out at 230 nM, the dissociation rate constant (koff) came out at 0.0236 s⁻¹ and the kon was 84000 M⁻¹ s⁻¹.

In the case of “recombinant human integrin αvβ3 (from UniProt P06756 31-1048; P05106 27-718) (complex)”, the Kd was over 500 nM.

The record behind these values is publication doi:10.1101/2022.04.11.487882.
